Assay results: IntAct's records for PubMed 20129058

B1: Replicative helicase loader DnaC (Escherichia coli (strain K12)), P0AEF0 (parent)
chain: MKNVGDLMQRLQKMMPAHIKPAFKTGEELLAWQKEQGAIRSAALERENRAMKMQRTFNRSGIRPLHQNCSFENYRVECEGQMNALSKARQYVEEFDGNIASFIFSGKPGTGKNHLAAAICNELLLRGKSVLIITVADIMSAMKDTFRNSGTSEEQLLNDLSNVDLLVIDEIGVQTESKYEKVIINQIVDRRSSSKRPTGMLTNSNMEEMTKLLGERVMDRMRLGNSLWVIFNWDSYRSRVTGKEY

Variants of: B1
Conditions: with dnab_ecoli dnaB

effect of a mutation on the interaction | Variant
disrupting interaction | MKNVGDLMQRQQKMMPAHIKPAFKTGEELLAWQKEQGAIRSAALERENRAMKMQRTFNRSGIRPLHQNCSFENYRVECEGQMNALSKARQYVEEFDGNIASFIFSGKPGTGKNHLAAAICNELLLRGKSVLIITVADIMSAMKDTFRNSGTSEEQLLNDLSNVDLLVIDEIGVQTESKYEKVIINQIVDRRSSSKRPTGMLTNSNMEEMTKLLGERVMDRMRLGNSLWVIFNWDSYRSRVTGKEY [L11Q]
